# Reference: patent publication US20250052767A1 (BIOLEGEND, published 2025)
# Assays:
# human CD28 [1] = target: T1, human CD28 (human, UniProt P10747 19-220, On cells CD28 is a disulfide linked homodimer and a glycoprotein; one copy of the chain is given.); assay: cell-based or functional assay
# human CD28 [2] = target: T1, human CD28; assay: flow cytometry, PE-conjugated antibody on un-fixed human peripheral blood cells
# Experimental: (§1) Cells were left either un-fixed or were fixed with 4% PFA for 15 minutes and washed with PBS to remove PFA. Cells were then counted and adjusted in Cell Staining Buffer and stained with exemplary anti-CD28 antibodies conjugated to PE for 30 minutes in the dark. […] Data were acquired on a BD Canto II instrument, and analyzed by FlowJo.
# human CD28 [3] = target: T1, human CD28; assay: flow cytometry, Ba/F3-human CD28 cells pre-incubated with 70 ug antibody, then 1 ug biotinylated recombinant CD86 (competitor) + labelled streptavidin
# Experimental: After 15 minutes of incubation and wash, cells were incubated with PE-conjugated streptavidin. Data were acquired on a BD Canto II, and analyzed using FlowJo software.
# This value was subtracted from 100 to get a reduction percentage.
# human CD28 [4] = target: T1, human CD28; assay: flow cytometry, PE-conjugated antibody on 4% PFA-fixed human peripheral blood cells
# Experimental: as §1
# human CD28 [5] = target: T1, human CD28; assay: flow cytometry, PE-conjugated antibody on fresh human peripheral blood cells, CD3/CD28 gating
# Text: Cells were lysed with RBC lysis buffer, washed, and resuspended in Fluorofix solution (containing 1% PFA). Data were acquired on a BD Canto II instrument, and analyzed by FlowJo. […] A histogram was generated of each cell population to quantify median fluorescence intensity (MFI), and the MFI of each exemplary antibody and respective control was used to calculate the signal to noise (S:N) ratio (Table E2).
# human CD28 [6] = target: T1, human CD28; assay: cell-based or functional assay; remark: listed apart in the source
# T1 sequence (P10747 19-220 limits assumed): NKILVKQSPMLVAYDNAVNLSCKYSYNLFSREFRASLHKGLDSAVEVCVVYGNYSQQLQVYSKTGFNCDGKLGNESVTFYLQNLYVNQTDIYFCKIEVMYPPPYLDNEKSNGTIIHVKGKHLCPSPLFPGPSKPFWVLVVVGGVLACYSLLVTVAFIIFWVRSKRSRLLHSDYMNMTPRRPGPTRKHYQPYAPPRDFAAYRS
Binder,Division Index (no anti-CD3) (human CD28 [1]),Expansion Index (no anti-CD3) (human CD28 [1]),"Percent Divided (CFSE T cell division, no anti-CD3) (human CD28 [1]) [%]",S/N on un-fixed cells (human CD28 [2]),% Reduction (of CD86 binding) (human CD28 [3]) [%],MFI (of CD86 binding after antibody pre-incubation) (human CD28 [3]),S/N on fixed cells (human CD28 [4]),% CD28+ population (human CD28 [5]) [%],MFI CD28+ population (human CD28 [5]),S/N Ratio (human CD28 [5]),Division Index (with anti-CD3 UCHT1) (human CD28 [6]),Expansion Index (with anti-CD3 UCHT1) (human CD28 [6]),"Percent Divided (CFSE T cell division, with plate-coated anti-CD3 UCHT1) (human CD28 [6]) [%]"
"exemplary anti-CD28 antibody AB2 (antibody, V domains shown, Mouse hybridoma monoclonal antibody; also called antibody 2; clone 2) VH: QVQLQQPGSELMRPGASVKLSCKASGYTFTSYWMHWVKQRHGQGLEWIGNIYPGSGRTIYDEKFKSKATLTVDTSSSTAYMHLSSLTSEDSAVFYCTRSHYGSSFDAMDYWGQGTSVTVSS VL: DIQVNQSPSSLSASLGDTITITCHASQNIYVWLNWYQQKPGNIPKLLIYKASNLHTGVPSRFSGSGSGTGFTLTISSLQPEDIATYYCQQGQSYPWTFGGGTKLEIK",1.49,6.13,65.4,89,91.4,714,50.1,64.2,13100,207,0.99,4.56,44
"exemplary anti-CD28 antibody AB3 (antibody, V domains shown, Mouse hybridoma monoclonal antibody; Conjugated to PE in the staining assays; also called antibody 3; clone 3) VH: KVQLQQSGAGLVKPGASVKLSCKTSGYTFSDYIINWVKQRSGQGLEWIGWFYPGSGSINYNEKFKDKATLTADKSSSTVYMDLSRLTSEDSAVYFCARREDRGGYDAFDYWGQGTTLTVSS VL: DIQMTQSPASLSVSVGETVTITCRASENIYSNLAWYQQKQGKSPQLLVYAATKLADGVPSRFSGSGSGTQYSLRINSLQSEDFGSYYCQHFWGTPWTFGGGTKLEIK",0.0056,1.01,0.32,133,90.4,796,101,65.7,15600,260,1.08,5.11,55.7
"exemplary anti-CD28 antibody AB1 (antibody, V domains shown, Mouse hybridoma monoclonal antibody; also called antibody 1; clone 1) VH: QVHLQQSATELARPGASVKMSCKASGYTFTSYTMHWVKQRPGQGLEWIGYIDPGSGYSEFNHKFKDKSTLTADKSSSTAYMQLISLTSEDSAVYYCARRQDNSGYDSFDYWGQGTTLTVSS VL: DIQMTQSPASLSVSVGETVTITCRTSENIYSNLAWYQQKQGKSPQLLVYAATNLADGVSSRFSGSGSGIQYSLKINSLQSEDFGSYYCQHFWGIPWTFGGGTKLEIK",0.0072,1.01,0.58,89.2,91.1,736,61.6,64.8,12600,212,0.8,4.03,42
"exemplary anti-CD28 antibody AB4 (antibody, V domains shown, Mouse hybridoma monoclonal antibody; Conjugated to PE in the staining assays; also called antibody 4; clone 4) VH: EVQLQQSGPELEKPGASVKMSCKASGYSFTDYNMNWVKQSNGKSLEWIGIIDPYYGATTYNQRFKGKATLTVDKSSSTAYMQLKSLTSEDSAVYYCARFGFYGAMDYWGQGISVTVSS VL: DIQMTQSPASLSVSVGETVTITCRASENIYSNLAWYQQKQGKSPQLLVYAATKLADGVPSRFSGSGSGTQYSLRINSLQSEDFGSYYCQHFWGTPWTFGGGTKLEIK",0.0002,1,0.0091,75.4,92.1,657,57.7,64.9,11900,193,1.08,5.07,53.8
"exemplary anti-CD28 antibody AB5 (antibody, V domains shown, Mouse hybridoma monoclonal antibody; Conjugated to PE in the staining assays; also called antibody 5; clone 5) VH: EVQLQQSGPELEKPGASVKMSCKASGYSFTDYNMNWVKQSNGKSLEWIGIIDPYYGATTYNQRFKGKATLTVDKSSSTAYMQLKSLTSEDSAVYYCARFGFYGAMDYWGQGISVTVSS VL: DVVVTQTPLSLPVSFGDQVSISCRSSQSLANSFGNTYLSWYLHKPGQSPQLLIYGISNRFSGVPDRFSGSGSGTDFTLKISTIKPEDLGVYYCLQGTHQPFTFGSGTTLELK",0.0082,1.01,0.64,94.5,91.9,668,63.3,64.7,12500,195,1.17,5.39,60.5

# The remaining lines, values ahead:
Division Index (no anti-CD3) (human CD28 [1]),Expansion Index (no anti-CD3) (human CD28 [1]),"Percent Divided (CFSE T cell division, no anti-CD3) (human CD28 [1]) [%]",S/N on un-fixed cells (human CD28 [2]),% Reduction (of CD86 binding) (human CD28 [3]) [%],MFI (of CD86 binding after antibody pre-incubation) (human CD28 [3]),S/N on fixed cells (human CD28 [4]),% CD28+ population (human CD28 [5]) [%],MFI CD28+ population (human CD28 [5]),S/N Ratio (human CD28 [5]),Division Index (with anti-CD3 UCHT1) (human CD28 [6]),Expansion Index (with anti-CD3 UCHT1) (human CD28 [6]),"Percent Divided (CFSE T cell division, with plate-coated anti-CD3 UCHT1) (human CD28 [6]) [%]",Binder
0.62,2.85,30.7,30.9,88.8,925,24.6,65,5210,83.2,0.76,3.51,40,"exemplary anti-CD28 antibody AB8 (antibody, V domains shown, Mouse hybridoma monoclonal antibody; Conjugated to PE in the staining assays; also called antibody 8; clone 8) VH: EVKLVESGGGLVQPGGSLKLSCAASGFTFSSYTMSWVRQTPEKRLEWVAYISNGGGTTYYPDTVKGRFTISRDNAKNTLYLQMSSLKSEDTAVYYCARHRPYDYDVLDYWGQGTTLTVSS VL: DIVMTQSQKFMSTSVGDRVSITCKASQIVGTDVAWYQQKPGQSPKILIFSASNRYTGVPDRFTGSGSGTDFTLTISNMQSEDLADYFCHQYSRYPYTFGGGTKLEIK"
0.0047,1.01,0.33,128,91.1,741,101,66,15500,249,1.32,6.04,65.8,"exemplary anti-CD28 antibody AB6 (antibody, V domains shown, Mouse hybridoma monoclonal antibody; Conjugated to PE in the staining assays; also called antibody 6; clone 6) VH: KVQLQQSGAGLVKPGASVKLSCKTSGYTFSDYIINWVKQRSGQGLEWIGWFYPGSGSINYNEKFKDKATLTADKSSSTVYMDLSRLTSEDSAVYFCARREDRGGYDAFDYWGQGTTLTVSS VL: DIQMTQSPASLSVSVGETVTITCRASENIYSNLAWYQQKQGKSPQLLVYAATKLADGVPSRFSGSGSGTQYSLRINSLQSEDFGSYYCQHFWGTPWTFGGGTKLEIK"
0.014,1.03,0.47,130,88.5,955,108,64.8,16200,249,0.96,4.82,48,"exemplary anti-CD28 antibody AB7 (antibody, V domains shown, Mouse hybridoma monoclonal antibody; Conjugated to PE in the staining assays; also called antibody 7; clone 7) VH: KVQLQQSGAGLVKPGASVKLSCKASGYTFSDYIINWVKQRSGQGLEWIGWFYPGSGSINYNEKFKDKATLTADKSSSTVYMDLSRLTSEDSAVYFCARREDRGGYDAFDYWGQGTTLTVSS VL: DIQMTQSPASLSVSVGETVTITCRTSENIYSNLAWYQQKQGKSPQLLVYAATKLADGVPSRFSGSGSGTQYSLRINSLQPEDFGSYYCQHFWGTPWTFGGGTKLEIK"
